Reference: patent publication US20150274802A1 (INDIANA UNIVERSITY RESEARCH AND TECHNOLOGY, published 2015)
Values joined by “and” are separate entries in the source; they are usually repeats but may differ in a detail not shown here. Equal values may be shown once. Bridge positions count the residues as written; N and C are the ends. Square brackets hold non-standard residues; d marks the D form. Ends that are not written are not given here. I, II: the chains in the order shown. Phe(4-NH2) = Nc1ccc(C[C@H](N)C(=O)O)cc1

B1: IGF-1 A:B(E10Y16L17) (ligand)
chain 1: GIVDECCFRSCDLRRLEMYCA-NH2
chain 2: GPETLCGAELVDALYLVCGDRGFYFNKPT-NH2
modifications: cysteine pairing not given here
B2: IGF-1 A:B(E10Y16L17)-E31E32 B-COOH (ligand)
chain 1: GIVDECCFRSCDLRRLEMYCA
chain 2: GPETLCGAELVDALYLVCGDRGFYFNKPTEE-OH
modifications: not fully specified (C-terminus); ends and bridges not checked
B3: IGF-1 A (H8 A9 N21):B(H5D10Y16L17 A22) DPI A-COOH (ligand)
chain 1: GIVDECCHASCDLRRLEMYCN-OH
chain 2: GPEHLCGADLVDALYLVCGDAGFY
modifications: not fully specified (C-terminus); ends and bridges not checked
B4: IGF-1 A (H8 A9 N21):B(H5D10Y16L17) DPI A-COOH (ligand)
chain 1: GIVDECCHASCDLRRLEMYCN-OH
chain 2: GPEHLCGADLVDALYLVCGDRGFY
modifications: not fully specified (C-terminus); ends and bridges not checked
B5: IGF-1 A:B(D10Y16L17) DPI A-COOH (ligand)
chain 1: GIVDECCFRSCDLRRLEMYCA-OH
chain 2: GPETLCGADLVDALYLVCGDRGFY-NH2
modifications: ends and bridges not checked
B6: IGF-1 A:B (H5D10Y16L17) DPI (ligand)
chain 1: GIVDECCFRSCDLRRLEMYCA-NH2
chain 2: GPEHLCGADLVDALYLVCGDRGFY-NH2
modifications: cysteine pairing not given here
B7: MIU-57: B1-PEG20K MIU-35 (ligand)
chain: {PEG 20 kDa}-GPEHLCGAHLVDALYLVCGDRGFYGYGSSSRRAPQTGIVDECCHRSCDLRRLENYCN
modifications: ends and bridges not checked
B8: GE5W-B^1(H5,10Y16L17)25-C^1-A^1(A1H8N18,21) (ligand)
chain: GEEEEEWGPEHLCGAHLVDALYLVCGDRGFYGYGSSSRRAPQTAIVDECCHRSCDLRRLENYCN
B9: B^1(H5,10Y16L17)25-C^1-A^1(T8N18,21) (ligand)
chain: GPEHLCGAHLVDALYLVCGDRGFYGYGSSSRRAPQTGIVDECCTRSCDLRRLENYCN
B10: IGF-1 A:IGF-1 B(1-8)-In (9-17)-IGF-1 B(18-30) (ligand)
chain 1: GIVDECCFRSCDLRRLEMYCA-NH2
chain 2: GPETLCGSHLVEALYLVCGDRGFYFNKPT-NH2
modifications: disulfide I:6-I:11, I:20-II:18, I:7-II:6 (inferred); not fully specified
notes: chimeric B chain
B11: IGF-1 A:B (E10Y16L17) DPI (ligand)
chain 1: GIVDECCFRSCDLRRLEMYCA-NH2
chain 2: GPETLCGAELVDALYLVCGDRGFY-NH2
modifications: cysteine pairing not given here
B12: IGF-1 A:In B(1-5)-IGF-1 B(YL) (6-30) (ligand)
chain 1: GIVDECCFRSCDLRRLEMYCA
chain 2: FVNQHLCGAELVDALYLVCGDRGFYFNKPT
modifications: ends and bridges not checked; also: C-terminal amide, chain not given here
notes: chimeric B chain
B13: IGF1 (Y^B16L^B17) (p-NH2-F)^A19 amide (ligand)
chain 1: GIVDECCFRSCDLRRLEM[Phe(4-NH2)]CA
chain 2: GPETLCGAELVDALYLVCGDRGFYFNKPT
modifications: not fully specified; ends and bridges not checked
notes: also called IGF1 (Y^B16L^B17) A(p-NH2-F)^19
B14: IGF1(Y^B16L^B17)(AlaPro)^A-1,0 (ligand)
chain 1: APGIVDECCFRSCDLRRLEMYCA
chain 2: GPETLCGAELVDALYLVCGDRGFYFNKPT
B15: IGF-1 A (H8 A9 N21):B(H5D10Y16L17A22) (S═O) DPI A-COOH (ligand)
chain 1: GIVDECCHASCDLRRLEMYCN-OH
chain 2: GPEHLCGADLVDALYLVCGDAGFY
modifications: not fully specified (C-terminus); ends and bridges not checked; also: (S═O) oxidation, residue not given here
B16: IGF-1 A:B(H5D10Y16L17) (S═O) DPI (ligand)
chain 1: GIVDECCFRSCDLRRLEMYCA-NH2
chain 2: GPEHLCGADLVDALYLVCGDRGFY-NH2
modifications: ends and bridges not checked; also: (S═O) oxidation, residue not given here
B17: IGF-2 AB(YL) (ligand)
chain 1: not shown
chain 2: AYRPSETLCGGELVDTLYLVCGDRGFYFSRPA
modifications: C-terminal amide
B18: IGF-1 A:B (ligand, human)
chain 1: GIVDECCFRSCDLRRLEMYCA
chain 2: GPETLCGAELVDALQFVCGDRGFYFNKPT
modifications: not fully specified (C-terminus); ends and bridges not checked; also: C-terminal amide, chain not given here
notes: domain: B chain; two-chain form of IGF-1

Target: T1, human insulin receptor (human, UniProt P06213 28-1382)
Experiment: cell-based or functional assay

Binder	% Insulin [%]	EC50, receptor phosphorylation
B1	49.2	2.57 nM
B2	–	7 nM and 8.52 nM
B3	–	0.35 nM and 0.44 nM
B4	–	0.15 nM and 0.25 nM
B5	1580	–

Target: T2, human IGF-1 receptor (human, UniProt P08069 31-1367)
Experiment: cell-based or functional assay

Binder	% IGF [%]	EC50, receptor phosphorylation [nM]
B6	7.1	12.2
B3	7.7	11.3
B4	181	0.43
B5	112	0.78

Target: T2, human IGF-1 receptor
Experiment: cell-based or functional assay
Remark: another data set of the same source

Binder	% Insulin Activity (in vitro, assay not named) [%]
B7	1.2

Target: T2, human IGF-1 receptor
Experiment: cell-based or functional assay
Remark: another data set of the same source

Binder	% (potency at the receptor, assay not named) [%]
B8	0.5
B9	3.7
B7	1.2

Target: T2, human IGF-1 receptor
Experiment: cell-based or functional assay
Remark: another data set of the same source

Binder	Phosphorylation (EC50), % IGF-1 R [%]
B7	1.2

Target: T2, human IGF-1 receptor
Experiment: competition SPA, [125I]IGF-1
Experimental: (§1) Non-specifically bound (NSB) radioactivity was measured in the wells with a four-fold concentration excess of “cold” native ligand than the highest concentration in test samples. Total bound radioactivity was detected in the wells with no competitor. Percent specific binding was calculated as following: % Specific Binding=(Bound-NSB/Total bound-NSB)×100. IC50 values were determined by using Origin software (OriginLab, Northampton, Mass.).

Binder	% IGF-1 (in test) [%]	% native IGF-1 activity (0.55 nM) [%]
B10	0.3	0.4
B2	3	3.1
B6	11.2	11.8
B3	2.3	2.4
B4	12.9	13.6
B11	3.3	2.4
B5	7.7	8.1
B12	3.6	2

Target: T1, human insulin receptor
Experiment: competition SPA, [125I]insulin

Binder	IC50 [nM]
B13	1.08

Target: T1, human insulin receptor
Experiment: competition SPA, [125I]insulin
Remark: another data set of the same source

Binder	IC50 [nM]
B14	1.93

Target: T1, human insulin receptor
Experiment: competition SPA, [125I]insulin
Remark: another data set of the same source
Experimental: as §1

Binder	% insulin (in test) [%]	% native insulin activity (0.6 nM) [%]	IC50 [nM]
B10	19.1	37.7	1.59
B6	479	–	0.16
B3	1170	–	0.12
B15	401	–	–
B16	316	–	0.25
B17	–	–	6.81
B18	5.8	5.8	10.4
